Data published in US7943340B2, “Fungal dipeptidyl peptidase IV (DPPIV) enzyme for reagent use” (priority 2003, dated 2011).
Entries after “also recorded” stand apart in the source; their conditions may differ.

Legend:
[1] = Aminopeptidase activity assay with fluorogenic aminoacyl-AMC substrates; type: biochemical
Description: (§1) Aminopeptidase activity was determined using different fluorogenic aminoacyl-4-methylcoumaryl-7-amide derivatives of peptides and the internally quenched fluorogenic substrate Lys(Abz)-Pro-Pro-pNA for specific determination of aminopeptidase P activity. Stockel et al, Adv Exp. Med. Biol. 421:31-35 (1997). All substrates were from Bachem (Bubendorf, Switzerland). Substrate stock solutions were prepared at 0.1 M according to the recommendations of the manufacturer and stored at −20° C. The reaction mixture contained a concentration of 5 mM substrate and enzyme preparation (between 56 and 2,662 ng per assay depending on the cleavage activity of each enzyme for the substrates) in 25 μl of 50 mM Tris-HCl buffer adjusted at the optimal pH for each LAP (between 7 and 8). After incubation at 37° C. for 60 min, the reaction was terminated by adding 5 μl of glacial acetic acid and the reaction mixture was diluted with 3.5 ml of water. The released 7-amino-4-methylcoumarin (AMC) was measured using a spectrofluorophotometer (Perkin Elmer LS-5 fluorometer, Zurich, Switzerland) at an excitation wavelength of 370 nm and an emission wavelength of 460 nm. A standard curve made with synthetic AMC was used to assess the released AMC. The released diprolyl-p-nitroanilide was measured at an excitation wavelength of 310 nm and an emission wavelength of 410 nm. The LA activities were expressed in mnoles of released AMC or pNA/min/μg protein.
Table 15 details the hydrolytic activity of different LAPs toward various aminoacyl-MCA comparison (%) to Leu-MCA used as a standard.

[2] = Aminopeptidase P activity assay; type: biochemical; conditions: substrate Lys(Abz)-Pro-Pro-pNA, 5 mM, 37° C., 60 min
Description: as §1

[3] = test system: gliadin 14 mer PQPQLPYPQPQLPY; type: biochemical, wheat; conditions: 4 h, 37° C., 1 mM CoCl2, pH7.2
[4] = test system: gliadin 33 mer; test: Digestion of gliadin 33 mer (RP-HPLC, ESI-MS); type: biochemical, wheat; conditions: within 4 h
[5] = test system: Ala-proNPY; test: Digestion of Ala-proNPY with ruLAP2; type: biochemical; conditions: overnight 37° C.
Description: The digested material was isolated by RP-HPLC and characterized by ESI-MS. […] The same result is obtained at an 1:[…] ratio. Digestion halts when the enzyme reaches a Xaa-Pro-motif, which in case of proNPY is Tyr-Pro. Conditions of incubation were the same as for Gly-Ser-proNPY.

[6] = test system: denatured casein; test: Digestion of full-length polypeptide chain (denatured casein); type: biochemical; conditions: partially purified, in the presence of a trypsin-like endoprotease from the P. pastoris expression system

B1: ruLAP2: T. rubrum leucine aminopeptidase, 495 amino acid residues (SEQ ID NO: 3) (protein, listed as Trichophyton rubrum)
chain: MKSQLLSLAVAVTTISQGVVGQEPFGWPFKPMVTQDDLQNKIKLKDIMAGVEKLQSFSDAHPEKNRVFGGNGHKDTVEWIYNEIKATGYYDVKKQEQVHLWSHAEAALNANGKDLKASAMSYSPPASKIMAELVVAKNNGCNATDYPANTQGKIVLVERGVCSFGEKSAQAGDAKAAGAIVYNNVPGSLAGTLGGLDKRHVPTAGLSQEDGKNLATLVASGKIDVTMNVISLFENRTTWNVIAETKGGDHNNVIMLGAHSDSVDAGPGINDNGSGSIGIMTVAKALTNFKLNNAVRFAWWTAEEFGLLGSTFYVNSLDDRELHKVKLYLNFDMIGSPNFANQIYDGDGSAYNMTGPAGSAEIEYLFEKFFDDQGIPHQPTAFTGRSDYSAFIKRNVPAGGLFTGAEVVKTPEQVKLFGGEAGVAYDKNYHRKGDTVANINKGAIFLNTRAIAYAIAEYARSLKGFPTRPKTGKRDVNPQYSKMPGGGCGHHTVFM
hydrolysis of Leu-AMC [1]: efficiently hydrolyzed | hydrolytic activity toward Ala-AMC in comparison (%) to Leu-MCA ([1]; substrate Ala-AMC, 5 mM, 37° C., 60 min): 33.3% | hydrolytic activity toward Arg-AMC in comparison (%) to Leu-MCA ([1]; substrate Arg-AMC, 5 mM, 37° C., 60 min): 1.9% | hydrolytic activity toward Asn-AMC in comparison (%) to Leu-MCA ([1]; substrate Asn-AMC, 5 mM, 37° C., 60 min): 114.6% | hydrolytic activity toward Asp-AMC in comparison (%) to Leu-MCA ([1]; substrate Asp-AMC, 5 mM, 37° C., 60 min): 3.8% | hydrolytic activity toward Cys-AMC in comparison (%) to Leu-MCA ([1]; substrate Cys-AMC, 5 mM, 37° C., 60 min): 14.9% | hydrolytic activity toward Gln-AMC in comparison (%) to Leu-MCA ([1]; substrate Gln-AMC, 5 mM, 37° C., 60 min): 49.9% | hydrolytic activity toward Glu-AMC in comparison (%) to Leu-MCA ([1]; substrate Glu-AMC, 5 mM, 37° C., 60 min): 3.7% | hydrolytic activity toward Gly-AMC in comparison (%) to Leu-MCA ([1]; substrate Gly-AMC, 5 mM, 37° C., 60 min): 3.3% | hydrolytic activity toward Gly-Pro-AMC in comparison (%) to Leu-MCA ([1]; substrate Gly-Pro-AMC, 5 mM, 37° C., 60 min): 7.2% | hydrolytic activity toward His-AMC in comparison (%) to Leu-MCA ([1]; substrate His-AMC, 5 mM, 37° C., 60 min): 0.6% | hydrolytic activity toward Hyp-AMC in comparison (%) to Leu-MCA ([1]; substrate Hyp-AMC, 5 mM, 37° C., 60 min): 14.2% | hydrolytic activity toward Ile-AMC in comparison (%) to Leu-MCA ([1]; substrate Ile-AMC, 5 mM, 37° C., 60 min): 6.4% | hydrolytic activity toward Leu-AMC in comparison (%) to Leu-MCA used as a standard ([1]; substrate Leu-AMC (standard), 5 mM, 37° C., 60 min): 100.0% | hydrolytic activity toward Lys-AMC in comparison (%) to Leu-MCA ([1]; substrate Lys-AMC, 5 mM, 37° C., 60 min): 4.6% | hydrolytic activity toward Met-AMC in comparison (%) to Leu-MCA ([1]; substrate Met-AMC, 5 mM, 37° C., 60 min): 119.7% | hydrolytic activity toward Phe-AMC in comparison (%) to Leu-MCA ([1]; substrate Phe-AMC, 5 mM, 37° C., 60 min): 17.1% | hydrolytic activity toward Pro-AMC in comparison (%) to Leu-MCA ([1]; substrate Pro-AMC, 5 mM, 37° C., 60 min): 21.4% | hydrolytic activity toward Pyr-AMC in comparison (%) to Leu-MCA ([1]; substrate Pyr-AMC, 5 mM, 37° C., 60 min): 0.0% | hydrolytic activity toward Ser-AMC in comparison (%) to Leu-MCA ([1]; substrate Ser-AMC, 5 mM, 37° C., 60 min): 26.1% | hydrolytic activity toward Thr-AMC in comparison (%) to Leu-MCA ([1]; substrate Thr-AMC, 5 mM, 37° C., 60 min): 0.9% | hydrolytic activity toward Val-AMC in comparison (%) to Leu-MCA ([1]; substrate Val-AMC, 5 mM, 37° C., 60 min): 4.8% | hydrolytic activity toward Lys(Abz) Pro-PropNA in comparison (%) to Leu-MCA [2]: 0.0% | digestion of the 14 mer [3]: not digested; also recorded: results only in the cleavage of the N-terminal Proline | partial degradation of the 33 mer [4]: less than 50% | removal of N-terminal alanine from Ala-proNPY [5]: almost totally removed | digestion of denatured casein [6]: sequentially digest a full-length polypeptide chain, such as denatured casein
